The RNAGym collection of RNA variant scans (doi:10.1101/gr.219683.116)

B1: mRNA-splicing (parent)
chain: AGUUGCUGCUGGGAGCUCCAGCACAGUGAAAUGGACAGAAGGGCAGAGCAA

Variants of: B1
Assay: exon inclusion enrichment index; higher = more inclusion; WT1 exon 5 minigene, HEK293

| Variant | exon inclusion enrichment index |
| --- | --- |
| AGUUACUACCGGGAGCUCCAGCACAGUGAAAUGGACAGAAGGGCAGAGCAA | 1.77 |
| AGUUAUCUAUGGGAGCUCCAGCACAGUGAAAUGGACAGAAGGGCAGAGCAA | 0.249 |
| AGUUACAGAUGGGAGCUCCAGCACAGUGAAAUGGACAGAAGGGCAGAGCAA | 0.664 |
| AGUUACAACCGGGAGCUCCAGCACAGUGAAAUGGACAGAAGGGCAGAGCAA | 1.72 |
| AGUUAUAUGGGGGAGCUCCAGCACAGUGAAAUGGACAGAAGGGCAGAGCAA | 0.0235 |
| AGUUAUAUGAGGGAGCUCCAGCACAGUGAAAUGGACAGAAGGGCAGAGCAA | 0.0375 |
| AGUUAUAUGCGGGAGCUCCAGCACAGUGAAAUGGACAGAAGGGCAGAGCAA | 0.339 |
| AGUUACAGAAGGGAGCUCCAGCACAGUGAAAUGGACAGAAGGGCAGAGCAA | 0.318 |
| AGUUACACCCGGGAGCUCCAGCACAGUGAAAUGGACAGAAGGGCAGAGCAA | 1.42 |
| AGUUAUGCAUGGGAGCUCCAGCACAGUGAAAUGGACAGAAGGGCAGAGCAA | 0.407 |
| AGUUAUCAAUGGGAGCUCCAGCACAGUGAAAUGGACAGAAGGGCAGAGCAA | 0.442 |
| AGUUAUAUAUGGGAGCUCCAGCACAGAUAAAUGGACAGAAGGGCAGAGCAA | 0.0109 |
| AGUUAUAUAUGGGAGCUCCAGCACAGAAAAAUGGACAGAAGGGCAGAGCAA | 0.065 |
| AGUUAUAUAUGGGAGCUCCAGCACAGACAAAUGGACAGAAGGGCAGAGCAA | 0.126 |
| AGUUAUAUAAAGGAGCUCCAGCACAGUGAAAUGGACAGAAGGGCAGAGCAA | 0.0538 |
| AGUUAUAUAACGGAGCUCCAGCACAGUGAAAUGGACAGAAGGGCAGAGCAA | 0.176 |
| AGUUAUAUAAUGGAGCUCCAGCACAGUGAAAUGGACAGAAGGGCAGAGCAA | 0.0948 |
| AGUUAUGAAUGGGAGCUCCAGCACAGUGAAAUGGACAGAAGGGCAGAGCAA | 0.546 |
| AGUUAUAUAUGGGAGCUCCAGCACAGUGAAACUGACAGAAGGGCAGAGCAA | 0.0226 |
| AGUUAUAUAUGGGAGCUCCAGCACAGUGAAACAGACAGAAGGGCAGAGCAA | 0.0199 |
| AGUUAUAUAUGGGAGCUCCAGCACAGUGAAACCGACAGAAGGGCAGAGCAA | 0.144 |
| AGUUAUAUAUGGGAGCGUCAGCACAGUGAAAUGGACAGAAGGGCAGAGCAA | 0.0294 |
| AGUUAUAUAUGGGAGCGGCAGCACAGUGAAAUGGACAGAAGGGCAGAGCAA | 0.0481 |
| AGUUAUAUAUGGGAGCGACAGCACAGUGAAAUGGACAGAAGGGCAGAGCAA | 0.0489 |
| AGUUAUGACCGGGAGCUCCAGCACAGUGAAAUGGACAGAAGGGCAGAGCAA | 1.97 |
| AGUUAUAUAUGGGAGCUCCAGCACAGUGAAAACGACAGAAGGGCAGAGCAA | 0.0967 |

| Variant | exon inclusion enrichment index |
| --- | --- |
| AGUUAUAUAUGGGAGCUCCAGCACAGUGAAAAUGACAGAAGGGCAGAGCAA | 0.0199 |
| AGUUAUAUAUGGGAGCUCCAGCACAGUGAAAAAGACAGAAGGGCAGAGCAA | 0.00941 |
| AGUUAUAUAUGGGAGCUCCAGCACAGUGAAAUGGACAGAAGGGCAGAACAA | 0.185 |
| AGUUAUAUAUGGGAGCUCCAGCACAGUGAAAUGGACAGAAGGGCAGAUCAA | 0.114 |
| AGUUAUAUAUGGGAGCUCCAGCACAGUGAAAUGGACAGAAGGGCAGACCAA | 0.13 |
| AGUUAUAUAUGGGAGCUCCAGCACAGUGAAAGUGACAGAAGGGCAGAGCAA | 0.0122 |
| AGUUAUAUAUGGGAGCUCCAGCACAGUGAAAGAGACAGAAGGGCAGAGCAA | 0.00894 |
| AGUUAUAUAUGGGAGCUCCAGCACAGUGAAAGCGACAGAAGGGCAGAGCAA | 0.0522 |
| AGUUACUCCCGGGAGCUCCAGCACAGUGAAAUGGACAGAAGGGCAGAGCAA | 1.52 |
| AGUUAUCGAUGGGAGCUCCAGCACAGUGAAAUGGACAGAAGGGCAGAGCAA | 1.32 |
| AGUUACAUCCGGGAGCUCCAGCACAGUGAAAUGGACAGAAGGGCAGAGCAA | 1.96 |
| AGUUAUAUAUGGGAGCUCCAGCACAGAGAAAUGGACAGAAGGGCAGAGCAA | 0.0803 |
| AGUUAUAUAUGGGAGCUCCAGCACAGCGAAAUGGACAGAAGGGCAGAGCAA | 0.399 |
| AGUUAUAUAUGGGAGCUCCAGCACAGGGAAAUGGACAGAAGGGCAGAGCAA | 0.0103 |
| AGUUAUAUACCGGAGCUCCAGCACAGUGAAAUGGACAGAAGGGCAGAGCAA | 0.845 |
| AGUUAUAUACUGGAGCUCCAGCACAGUGAAAUGGACAGAAGGGCAGAGCAA | 0.148 |
| AGUUAUAUACAGGAGCUCCAGCACAGUGAAAUGGACAGAAGGGCAGAGCAA | 0.0351 |
| AGUUACCGAUGGGAGCUCCAGCACAGUGAAAUGGACAGAAGGGCAGAGCAA | 2.07 |
| AGUUAUCCAUGGGAGCUCCAGCACAGUGAAAUGGACAGAAGGGCAGAGCAA | 1.04 |
| AGUUACUUAUGGGAGCUCCAGCACAGUGAAAUGGACAGAAGGGCAGAGCAA | 0.187 |
| AGUUACUUUUGGGAGCUCCAGCACAGUGAAAUGGACAGAAGGGCAGAGCAA | 0.166 |
| AGUUACCGACGGGAGCUCCAGCACAGUGAAAUGGACAGAAGGGCAGAGCAA | 2.95 |
| AGUUAUAUAUGGGAGCUCCAGCACAGCAAAAUGGACAGAAGGGCAGAGCAA | 0.0919 |
| AGUUAUAUAUGGGAGCUCCAGCACAGCUAAAUGGACAGAAGGGCAGAGCAA | 0.0508 |
| AGUUAUAUAUGGGAGCUCCAGCACAGCCAAAUGGACAGAAGGGCAGAGCAA | 0.1 |
